The values below come from article PMC9295770 (Proceedings of the National Academy of Sciences of the …, 2022).

In series [1] the target is CD3ζL19A-GFP (L19A murine CD3ζ-GFP fusion protein), transgenic mouse thymocytes (mouse). The series can be described thus: immunoblot of whole lysates. (In general: A western blot detects proteins with antibodies after separation by electrophoresis.)
Series [2] deals with the molecule itself. The series can be described thus: immunoblot of whole lysates.

In the case of “CD3ζL19A-GFP (L19A murine CD3ζ-GFP fusion protein), transgenic mouse thymocytes (natural protein)”, the stoichiometry N – broadly, the number of molecules, sites or subunits per partner or assembly – in series [1] worked out at 2.

B1: CD3ζWT-GFP (wild-type murine CD3ζ-GFP fusion protein), transgenic mouse thymocytes (natural protein, UniProt P24161-1 22-164, looked up)
chain: QSFGLLDPKLCYLLDGILFIYGVIITALYLRAKFSRSAETAANLQDPNQLYNELNLGRREEYDVLEKKRARDPEMGGKQQRRRNPQEGVYNALQKDKMAEAYSEIGTKGERRRGKGHDGLYQGLSTATKDTYDALHMQTLAPR
As for B1, in series [2], the “stoichiometry N” value was 2.
